Experimental data: patent publication US20130089516A1
Several values for one entry are separate records, joined by “and”; a condition that tells them apart may be missing. Equal values may be shown once.

Experiments:
[1] = molecular target: IL-2 portion of the mouse IL-2/IL-2Rα fusion proteins (mouse) (UniProt P04351); test: cell-based or functional assay
[2] = molecular target: mouse IL-2/IL-2Rα fusion proteins (2× and 4× linker lengths); test: sandwich ELISA (JES6-1A12 capture, JES5H4 detection by the general methods), PSA-treated against buffer-treated fusion protein
[3] = molecular target: recombinant human IL-2 (Peprotech) (human) (UniProt P60568); test: modified phage ELISA, human IL-2 coated; 2 µg/ml MQ1-17H12 added, then scFv-2 phage (competitor)
recombinant human IL-2 (Peprotech) (human), sequence (P60568 21-153 limits assumed): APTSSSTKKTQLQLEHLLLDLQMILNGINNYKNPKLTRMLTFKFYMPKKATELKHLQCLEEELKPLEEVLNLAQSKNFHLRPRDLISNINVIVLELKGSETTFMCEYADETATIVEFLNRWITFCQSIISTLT

IL-2 portion of the mouse IL-2/IL-2Rα fusion proteins (mouse), sequence (P04351 21-169 limits assumed): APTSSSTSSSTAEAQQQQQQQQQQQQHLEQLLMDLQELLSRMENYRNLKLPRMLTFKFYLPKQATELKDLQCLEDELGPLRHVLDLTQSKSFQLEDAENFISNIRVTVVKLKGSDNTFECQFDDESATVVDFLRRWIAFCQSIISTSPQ

Substance: IL-2Rα portion of the mouse IL-2/IL-2Rα fusion proteins (soluble form of the alpha chain of the IL-2 receptor) (from UniProt P01590 22-236)
- attenuation of IL-2 biologic activity in the intact uncleaved fusion protein against the equivalent amount of free IL-2, CTLL-2 bioassay [1]: > 60 fold
- increase of biologically active IL-2 after PSA cleavage of the fusion protein with the 2× linker, CTLL-2 / MTT assay [1]: 3.5 fold
- increase of biologically active IL-2 after PSA cleavage of the fusion protein with the 4× linker, CTLL-2 / MTT assay [1]: 9 fold

Substance: rat anti-mouse IL-2 monoclonal antibody JES6-1A12 (BD Pharmingen)
- fold increase in the apparent amount of IL-2 detected after PSA cleavage [2]: 2 fold and 4 fold

Substance: neutralizing anti-human IL-2 monoclonal antibody MQ1-17H12 (eBioscience)
- percent blocking of scFv-2 phage binding [3]: 70%
